These are literature values, as cited in publication PMC8689690.

The series addresses IL-28R1 (Homo sapiens) (UniProt Q8IU57). Briefly: ELISA. (In general: In an ELISA, binding on a coated surface is turned into a signal by an enzyme label.)
Chain of UniProt Q8IU57 (Q8IU57 21-228): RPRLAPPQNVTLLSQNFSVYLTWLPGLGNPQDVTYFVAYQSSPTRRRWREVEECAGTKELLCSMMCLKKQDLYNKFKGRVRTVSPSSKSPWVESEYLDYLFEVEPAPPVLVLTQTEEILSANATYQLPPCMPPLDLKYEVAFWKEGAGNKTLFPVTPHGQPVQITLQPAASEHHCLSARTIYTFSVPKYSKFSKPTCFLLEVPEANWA

On to IFNL1 (from UniProt Q8IU54), for which the Kd was 15 nM.
On to IFNL3 (from UniProt Q8IZI9), for which the Kd was 65 nM.

A word on the Kd: it is the equilibrium constant for the complex coming apart.
